{
  "source": "paper PMC4188797",
  "binders": {"B1": {"name": "metabotropic glutamate receptor 1 splice variant mGluR1a (endogenous, rat brain), P23385 19-1199 (receptor)", "chain": "LPRMPDRKVLLAGASSQRSVARMDGDVIIGALFSVHHQPPAEKVPERKCGEIREQYGIQRVEAMFHTLDKINADPVLLPNITLGSEIRDSCWHSSVALEQSIEFIRDSLISIRDEKDGLNRCLPDGQTLPPGRTKKPIAGVIGPGSSSVAIQVQNLLQLFDIPQIAYSATSIDLSDKTLYKYFLRVVPSDTLQARAMLDIVKRYNWTYVSAVHTEGNYGESGMDAFKELAAQEGLCIAHSDKIYSNAGEKSFDRLLRKLRERLPKARVVVCFCEGMTVRGLLSAMRRLGVVGEFSLIGSDGWADRDEVIEGYEVEANGGITIKLQSPEVRSFDDYFLKLRLDTNTRNPWFPEFWQHRFQCRLPGHLLENPNFKKVCTGNESLEENYVQDSKMGFVINAIYAMAHGLQNMHHALCPGHVGLCDAMKPIDGRKLLDFLIKSSFVGVSGEEVWFDEKGDAPGRYDIMNLQYTEANRYDYVHVGTWHEGVLNIDDYKIQMNKSGMVRSVCSEPCLKGQIKVIRKGEVSCCWICTACKENEFVQDEFTCRACDLGWWPNAELTGCEPIPVRYLEWSDIESIIAIAFSCLGILVTLFVTLIFVLYRDTPVVKSSSRELCYIILAGIFLGYVCPFTLIAKPTTTSCYLQRLLVGLSSAMCYSALVTKTNRIARILAGSKKKICTRKPRFMSAWAQVIIASILISVQLTLVVTLIIMEPPMPILSYPSIKEVYLICNTSNLGVVAPVGYNGLLIMSCTYYAFKTRNVPANFNEAKYIAFTMYTTCIIWLAFVPIYFGSNYKIITTCFAVSLSVTVALGCMFTPKMYIIIAKPERNVRSAFTTSDVVRMHVGDGKLPCRSNTFLNIFRRKKPGAGNANSNGKSVSWSEPGGRQAPKGQHVWQRLSVHVKTNETACNQTAVIKPLTKSYQGSGKSLTFSDASTKTLYNVEEEDNTPSAHFSPPSSPSMVVHRRGPPVATTPPLPPHLTAEETPLFLADSVIPKGLPPPLPQQQPQQPPPQQPPQQPKSLMDQLQGVVTNFGSGIPDFHAVLAGPGTPGNSLRSLYPPPPPPQHLQMLPLHLSTFQEESISPPGEDIDDDSERFKLLQEFVYEREGNTEEDELEEEEDLPTASKLTPEDSPALTPPSPFRDSVASGSSVPSSPVSESVLCTPPNVTYASVILRDYKQSSSTL"}},
  "molecular_target": "metabotropic glutamate receptor 1 splice variant mGluR1a (endogenous, rat brain) (rat (endogenous in rat brain)), P23385",
  "test": "SDS-PAGE and immunoblot of dimer bands in subcellular fractions",
  "details": "remark: other sources report otherwise",
  "data": [
    {"binder": "B1", "values": [
      {"measurement": "stoichiometry N", "result": 2}
    ]}
  ]
}
